“And” between values parts separate entries of the source, which are not always exact repeats. Equal entries are not always repeated.
Molecular target: the molecule itself
Assay: cross-linking; HEK293F cells singly transfected with EGFP-tagged β3 constructs; lysate (Hanks' balanced salt solution, 1% Triton X-100, 0.2% SDS, 0.5% sodium deoxycholate) incubated with BS3 (5 mM) for 1 h at 4 °C, quenched with glycine; SDS-PAGE and anti-GFP Western blot

Protein	stoichiometry N
full-length WT β3-subunit with C-terminal EGFP tag (natural protein, human, UniProt Q9NY72 23-215, looked up, voltage-gated sodium channel auxiliary β3-subunit, full-length; glycosylated (multiple bands on SDS-PAGE); also called WT-β3-EGFP; FL β3-EGFP; source: HEK293F, transfected (pcDNA3 WT-β3-EGFP), in lysate; not shown: EGFP, C-terminal, kept) FPVCVEVPSETEAVQGNPMKLRCISCMKREEVEATTVVEWFYRPEGGKDFLIYEYRNGHQEVESPFQGRLQWNGSKDLQDVSITVLNVTLNDSGLYTCNVSREFEFEAHRPFVKTTRLIPLRVTEEAGEDFTSVVSEIMMYILLVFLTLWLLIEMIYCYRKVSKAEEAAQENASDYLAIPSENKENSAVPVEE	2 and 3
full-length β3-subunit E176K with C-terminal EGFP tag (natural protein, human, UniProt Q9NY72 23-215, looked up, voltage-gated sodium channel auxiliary β3-subunit, full-length, with E176K in the transmembrane region; residues numbered from the start codon of the cDNA; Made by site-directed mutagenesis of WT-β3-EGFP; also called β3-E176K-EGFP; E176K-EGFP; source: HEK293F, transfected, in lysate; not shown: EGFP, C-terminal, kept) FPVCVEVPSETEAVQGNPMKLRCISCMKREEVEATTVVEWFYRPEGGKDFLIYEYRNGHQEVESPFQGRLQWNGSKDLQDVSITVLNVTLNDSGLYTCNVSREFEFEAHRPFVKTTRLIPLRVTEEAGEDFTSVVSEIMMYILLVFLTLWLLIKMIYCYRKVSKAEEAAQENASDYLAIPSENKENSAVPVEE	2 and 3

From article PMC6926464, “Gating control of the cardiac sodium channel Nav1.5 by its β3-subunit involves distinct roles for a transmembrane glutamic acid and the extracellular domain” (The Journal of Biological Chemistry, 2019)
